Measured values as given in PMC7094300 (Febs Letters, 2006).

Biological target: the molecule itself
Assay: small-angle X-ray scattering + cross-linking + other: enzyme kinetics

B1: SARS CoV main proteinase (enzyme)
chain: SGFRKMAFPSGKVEGCMVQVTCGTTTLNGLWLDDTVYCPRHVICTAEDMLNPNYEDLLIRKSNHSFLVQAGNVQLRVIGHSMQNCLLRLKVDTSNPKTPKYKFVRIQPGQTFSVLACYNGSPSGVYQCAMRPNHTIKGSFLNGSCGSVGFNIDYDCVSFCYMHHMELPTGVHAGTDLEGKFYGPFVDRQTAQAAGTDTTITLNVLAWLYAAVINGDRWFLNRFTTTLNDFNLVAMKYNYEPLTQDHVDILGPLSAQTGIAVLDMCAALKELLQNGMNGRTILGSTILEDEFTPFDVVRQCSGVTFQ
B1 was tested. Which “stoichiometry N” value did it give?
The value was 2.
